Measurements from patent publication US20240216513A1, “FATTY ACID-BIFUNCTIONAL DEGRADER CONJUGATES AND THEIR METHODS OF USE” (Novartis AG, priority 2021, published 2024).

Legend:
BTK = molecular target: T1, BTK (Homo sapiens, UniProt Q06187); test: PK/PD in TMD8 tumor-bearing mice: BTK levels in tumor by Meso Scale Discovery; format: in vivo, mouse; details: for Duration of BTK degradation in mouse ≥90%: I.v.
T1 construct: endogenous in cells; host or cells: TMD8 tumour xenografts in SCID/BEIGE mice
Protocol: (§1) All animal experiments were performed according to procedures covered by permit number BS-1974, BS-1975 and BS-2904 issued by the Kantonales Veterinäramt Basel-Stadt and strictly adhered to the Eidgenössisches Tierschutzgesetz and the Eidgenössische Tierschutzverordnung. Female Sprague Dawley rat were obtained from Charles Rivers (Germany), female Balb/c mice from Charles Rivers (Italy) and female SCID/BEIGE (C.B-Igh-1b/GbmsTac-Prkdcscid-Lystbg N7) mice from Taconic. All the animals were housed in a pathogen-controlled environment with access to food and water ad libitum and they were identified with transponders.
(§2) Subcutaneous TMD8 tumors were induced by injecting tumor cells expanded in vitro in the right flank of SCID/BEIGE mice. As soon as the injection was finished, antagonization (naloxone, flumazenil and atipamezole injected s.c.) was injected and mice are put on a warming pad for recovery and carefully checked during that time.
(§3) For PK experiments, non-tumor bearing mice or rats were treated once (10 mL/kg) with a compound either i.v. or s.c. Serial blood samplings from the tail vein (5-20 μl) were collected during the course of the experiment. For PK/PD experiments in tumor-bearing mice, compound was administered once (10 mL/kg) either i.v. or s.c. Animals were randomized into groups of n=3 and tissue samples were collected at several time points. At the times indicated, animals were anaesthetized by exposure to 2-3% v/v isoflurane in medical oxygen. They were sacrificed without recovering from anesthetic after blood sampling into commercially prepared EDTA coated tubes (Milian, cat #TOM-14C) in order to extract plasma. The tissues were excised, weighted and rapidly frozen in liquid nitrogen. Later, tumors were cryogenic dry pulverized with the CryoPrep™ system (model CP-02, Covaris). For efficacy experiments in ectopic tumor-bearing mice, animals were randomized into groups of n=6 for a mean tumor size of 100 mm^3 and compound was administered either i.v. q3w or s.c. q2w. When implanted in brain, animals were randomized into groups of n=4 for a mean bioluminescence of 1.0-2.0E+06 [p/s]/[ρW/cm^2] and compound was administered i.v. qw. Tumor response were reported with the measures of tumor volumes or bioluminescence from the treatment start. Concentrations of compound in blood and tissues were determined simultaneously by UPLC/MS-MS. BTK and IL-10 levels in tumor were determined by Meso Scale Discovery (MSD).

TMD8 tumors = test: Efficacy in ectopic (subcutaneous) TMD8 tumor-bearing SCID/BEIGE mice, tumor volume; format: in vivo, mouse; details: I.v.
Protocol: as §1, §2, §3

[1] = In vivo pharmacokinetic study in mice (i.v. or s.c.), FAC and payload in blood; design: species or system mouse; details: male
Protocol: (§4) Pharmacokinetic studies were conducted in male C57/B16 mice; male Sprague-Dawley rats; male Beagle dogs and male Cynomolgus monkeys. 3 animals per group were used for each study performed. All studies were performed in accordance with local animal welfare regulations.
(§5) […] Serial 30 µL blood samples were collected via venipuncture of the tail vein in mouse, and via the cannulated jugular vein in rats at defined timepoints to 216 hours (into EDTA coated tubes).
(§6) Each blood sample was precipitated with acetonitrile containing internal standard; samples were mixed and centrifuged (20 minutes 4000 RPM at 4° C.). Supernatant was transferred to a microwell plate and evaporated under nitrogen at 60° C. Residue was resuspended in acetonitrile/water (7:3 v/v); plate sealed and transferred to an ultrasonic bath for 3 minutes, prior to analysis. Quantification was performed by LC-MS/MS (SciexAP16500 Q-trap, Shimadzu Nexera X2) using a Phenomenex Polar RP analytical column (2.5 μm particle size; 50×2 mm). The mobile phase consisted of solvent A (0.1% formic acid in water) and solvent B (0.1% formic acid in acetonitrile). The fatty acid conjugate and API were detected using multiple reaction monitoring.
(§7) Data analysis and calculation of non-compartmental pharmacokinetic parameters was
(§8) performed using an in-house analysis. Following intravenous administration whole blood clearance was calculated by the dose administered divided by AUC0-inf. Volume of distribution at steady state was calculated as MRT*CL, where MRT is the mean residence time, calculated by AUMC0-inf/AUC0-inf. The half-life (t1/2) of the terminal elimination phase was calculated by 0.693/λ. For both intravenous and subcutaneous administration, the systemic exposures were determined by calculating the area under the blood concentration time curve (AUC) from time zero to the last observed quantifiable concentration (AUClast) by using the linear trapezoidal method and normalised to dose. Extrapolated AUC (AUC0-inf) is calculated by addition of AUClast and AUCtlast-inf; where AUCtlast-inf is calculated based on Clast/λ. The slope of the terminal elimination phase was estimated by linear regression of the terminal data points (minimum 3 points) from a natural log concentration versus time plot of the data. Bioavailability was calculated as the dose normalized ratio of […] AUCinf to intravenous AUCinf (100*[SC AUCinf/SC dose]/[IV AUCinf/IV dose]). Following subcutaneous administration Cmax is calculated as the average maximum observed peak concentration and Tmax is the time associated with the determined Cmax.
as §3, with “Concentrations of compound in blood and tissues were determined simultaneously by UPLC/MS-MS. BTK and IL-10 levels in tumor were determined by Meso Scale Discovery (MSD).” left out

[2] = In vivo pharmacokinetic study in Cynomolgus monkeys (i.v. or s.c.), FAC and payload in blood; design: species or system cynomolgus monkey
Protocol: as §4
(§9) Between 1 and 10 µM/kg FAC was administered either intravenously or subcutaneously as a solution in 10 mM PBS with NaOH (dose volume 0.4 mL/kg in dog and monkey s.c. and 0.2 mL/kg i.v. in monkey). Serial 100 µL blood samples were collected via venipuncture of the cephalic vein at defined timepoints to 336 hours (into EDTA coated tubes).
as §6, §7, §8

[3] = In vivo pharmacokinetic study in Beagle dogs (i.v. or s.c.), FAC and payload in blood; design: species or system dog
Protocol: as §4, §9, §6, §7, §8

[4] = In vivo pharmacokinetic study in rats (i.v. or s.c.), FAC and payload in blood; design: species or system rat; details: male, Sprague-Dawley, rat, in vivo, sc, 40 umol/kg
Protocol: as §4, §5, §6, §7, §8
as §3, with “Concentrations of compound in blood and tissues were determined simultaneously by UPLC/MS-MS. BTK and IL-10 levels in tumor were determined by Meso Scale Discovery (MSD).” left out

[5] = C57/B16, mouse, in vivo, sc, 40 umol/kg

T1 sequence (Q06187 whole entry): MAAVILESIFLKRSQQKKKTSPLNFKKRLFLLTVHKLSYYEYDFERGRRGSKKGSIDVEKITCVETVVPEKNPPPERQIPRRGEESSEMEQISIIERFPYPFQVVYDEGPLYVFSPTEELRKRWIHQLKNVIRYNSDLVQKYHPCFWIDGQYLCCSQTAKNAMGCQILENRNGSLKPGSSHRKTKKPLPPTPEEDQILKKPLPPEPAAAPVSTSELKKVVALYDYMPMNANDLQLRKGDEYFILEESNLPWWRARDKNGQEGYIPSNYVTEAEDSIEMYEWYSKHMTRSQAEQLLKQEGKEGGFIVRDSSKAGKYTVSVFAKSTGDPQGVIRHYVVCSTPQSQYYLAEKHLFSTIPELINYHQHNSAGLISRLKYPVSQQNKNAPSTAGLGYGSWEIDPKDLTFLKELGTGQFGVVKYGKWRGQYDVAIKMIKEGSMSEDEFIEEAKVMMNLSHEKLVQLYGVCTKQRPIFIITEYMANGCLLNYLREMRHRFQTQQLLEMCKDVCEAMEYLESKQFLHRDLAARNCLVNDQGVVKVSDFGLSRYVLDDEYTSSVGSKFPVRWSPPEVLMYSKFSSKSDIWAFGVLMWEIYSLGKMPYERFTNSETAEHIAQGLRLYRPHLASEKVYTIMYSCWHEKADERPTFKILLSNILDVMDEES

Duration of BTK degradation in mouse ≥90% (BTK; 40 umol/kg) [days] | Duration of BTK degradation in mouse ≥90% (BTK; 20 mg/kg (unconjugated N)) [days] | Duration of BTK degradation in mouse ≥90% (days) (BTK; s.c., 10 mg/kg (unconjugated N)) | AUC ([1]; C57/B16, whole blood, iv, Mouse, unconj. BTK Degrader dosed itself (i.v. per row label), API dose 10 umol/kg, read-out: Payload (BTK Degrader) AUC) [µM·h] | Cmax ([1]; C57/B16, whole blood, iv, Mouse, unconj. BTK Degrader dosed itself (i.v. per row label), API dose 10 umol/kg, read-out: Payload (BTK Degrader) Cmax) [µM] | Compound | Dosing to achieve sustained ~90% regression (TMD8 tumors) | AUC [1, 5] [µM·h] | Cmax [1, 5] [µM] | Fatty Acid Conjugate C0-uM d.n. Cyno ([2]; analyte conjugate, d.n., Conj. i.v. dose 1 umol/kg) [µM] | AUC ([2]; male, cynomolgus monkey, whole blood, sc, Cyno, Conj. s.c. dose 1 umol/kg, read-out: Lipophilic Acid Conjugate AUC) [µM·h] | Cmax ([2]; male, cynomolgus monkey, whole blood, sc, Cyno, Conj. s.c. dose 1 umol/kg, read-out: Lipophilic Acid Conjugate Cmax) [µM] | Fatty Acid Conjugate C0-uM d.n. Dog ([3]; analyte conjugate, d.n., Conj. i.v. dose 10 umol/kg) [µM] | AUC ([3]; male, Beagle, whole blood, sc, Dog, Conj. s.c. dose 10 umol/kg, read-out: Lipophilic Acid Conjugate AUC) [µM·h] | Cmax ([3]; male, Beagle, whole blood, sc, Dog, Conj. s.c. dose 10 umol/kg, read-out: Lipophilic Acid Conjugate Cmax) [µM] | Cmax [4] [µM] | AUC ([4]; Lipophilic Acid Conjugate AUC) [µM·h]
10 | – | – | – | – | CCCCCCCCCCC[C@@](CCCCCCCCCCC(=O)O)(C(=O)O)C(=O)NCCOCCOCCOCCOCCOCCOCCOCCOCCOCCOCCOCCOCCC(=O)NCC(=O)OC(C)(C)c1ccc(C(=O)Nc2cc(F)cc(-c3ncnc4[nH]c(-c5ccc(CN6CCC(OC7CCN(CCn8cccc(CN9CCC(=O)NC9=O)c8=O)CC7)CC6)cc5)cc34)c2C)c(F)c1 (single isomer, unassigned) [Compound B2] | 60 umol/kg q3w | 1860 | 60 | – | – | – | – | – | – | – | –
– | 4 | 1(10 mg/kg) days | 9.3 | 1.6 | Cc1c(NC(=O)c2ccc(C(C)(C)O)cc2F)cc(F)cc1-c1ncnc2[nH]c(-c3ccc(CN4CCC(OC5CCN(CCn6cccc(CN7CCC(=O)NC7=O)c6=O)CC5)CC4)cc3)cc12 [Compound N, N-(3-(6-(4-((4-((1-(2-(3-((2,4-Dioxotetrahydropyrimidin-1(2H)-yl)methyl)-2-oxopyridin-1(2H)-yl)ethyl)piperidin-4-yl)oxy)piperidin-1-yl)methyl)phenyl)-7H-pyrrolo[2,3-d]pyrimidin-4-yl)-5-fluoro-2-methylphenyl)-2-fluoro-4-(2-hydroxypropan-2-yl)benzamide] | 20 mg/kg 2qw | – | – | – | – | – | – | – | – | – | –
14 | – | – | – | – | CCCCCCCCCCC[C@](CCCCCCCCCCC(=O)O)(C(=O)O)C(=O)NCCOCCOCCOCCOCCOCCOCCOCCOCCOCCOCCOCCOCCC(=O)NCC(=O)OC(C)(C)c1ccc(C(=O)Nc2cc(F)cc(-c3ncnc4[nH]c(-c5ccc(CN6CCC(OC7CCN(CCn8cccc(CN9CCC(=O)NC9=O)c8=O)CC7)CC6)cc5)cc34)c2C)c(F)c1 (single isomer, unassigned) [Compound B3] | 20 umol/kg q3w | 3850 | 68 | – | – | – | – | – | – | – | –
10 | – | – | – | – | CCCCCCCCCCCC(CCCCCCCCCCC(=O)O)(C(=O)O)C(=O)NCCOCCOCCOCCOCCOCCOCCOCCOCCOCCOCCOCCOCCC(=O)NCC(=O)OC(C)(C)c1ccc(C(=O)Nc2cc(F)cc(-c3ncnc4[nH]c(-c5ccc(CN6CCC(OC7CCN(CCn8cccc(CN9CCC(=O)NC9=O)c8=O)CC7)CC6)cc5)cc34)c2C)c(F)c1 (stereo not shown) [Compound B1, 2-((44-(4-((3-(6-(4-((4-((1-(2-(3-((2,4-Dioxotetrahydropyrimidin-1(2H)-yl)methyl)-2-oxopyridin-1(2H)-yl)ethyl)piperidin-4-yl)oxy)piperidin-1-yl)methyl)phenyl)-7H-pyrrolo[2,3-d]pyrimidin-4-yl)-5-fluoro-2-methylphenyl)carbamoyl)-3-fluorophenyl)-44-methyl-39,42-dioxo-3,6,9,12,15,18,21,24,27,30,33,36,43-tridecaoxa-40-azapentatetracontyl)carbamoyl)-2-undecyltridecanedioic acid] | 40 umol/kg q3w | 3860 | 71 | 9.9 | 26.1 | 3.8 | 3.3 | 304 | 37.5 | 11 | 667
